Laboratory results reported in patent US20020115140A1.

Target: GPA1 protein (yeast) (UniProt P08539)
Assay: cell-based or functional assay

Sequence of UniProt P08539 (P08539 2-472 limits assumed): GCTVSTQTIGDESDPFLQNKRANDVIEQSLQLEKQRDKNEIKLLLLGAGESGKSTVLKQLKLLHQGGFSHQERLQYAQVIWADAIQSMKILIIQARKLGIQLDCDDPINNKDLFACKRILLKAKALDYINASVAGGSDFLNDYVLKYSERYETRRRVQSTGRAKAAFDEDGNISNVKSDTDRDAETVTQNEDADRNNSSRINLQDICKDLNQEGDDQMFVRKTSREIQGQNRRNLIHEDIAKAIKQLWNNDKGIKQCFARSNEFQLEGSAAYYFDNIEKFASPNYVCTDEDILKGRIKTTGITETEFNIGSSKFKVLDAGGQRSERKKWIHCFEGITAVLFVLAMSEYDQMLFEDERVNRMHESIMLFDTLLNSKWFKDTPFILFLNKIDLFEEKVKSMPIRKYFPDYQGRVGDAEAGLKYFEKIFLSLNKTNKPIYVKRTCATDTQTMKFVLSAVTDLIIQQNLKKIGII

For “murine RATH1.1 gene product (from UniProt P97428 1-201)”, the diameter of growth inhibition zone; strain MY169 (sst2-, RATH1.1 under ADH2 promoter); 1 µg alpha factor was 0.8 cm, the diameter of growth inhibition zone; strain MY169 (sst2-, RATH1.1 under ADH2 promoter); 10 µg alpha factor was 1.8 cm and the diameter of growth inhibition zone; strain MY173 (SST2+, RATH1.1 under ADH2 promoter); 10 µg alpha factor was 1.6 cm.
